Biological target: 40 S ribosomal subunit, wild type (RDN+) (S. cerevisiae (endogenous in NOY908)) (UniProt P32905)
Assay: co-sedimentation

Chain of UniProt P32905 (P32905 whole entry, looked up, tested part not stated): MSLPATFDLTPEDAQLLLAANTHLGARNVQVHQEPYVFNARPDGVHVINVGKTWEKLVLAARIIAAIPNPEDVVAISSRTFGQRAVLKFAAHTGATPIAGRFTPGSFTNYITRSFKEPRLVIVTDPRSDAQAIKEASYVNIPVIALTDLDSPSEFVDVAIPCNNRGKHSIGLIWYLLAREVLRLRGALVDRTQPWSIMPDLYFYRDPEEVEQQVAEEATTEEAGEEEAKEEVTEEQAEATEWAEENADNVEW

Substance: eIF3 (from UniProt P38249 1-964; Q04067 1-274) (complex)
- percent of the factor loaded on free 40 S subunits: < 5%

Substance: eIF2 (heterotrimeric factor) (from UniProt P20459 1-304; P09064 1-285; P32481 1-527) (complex)
- percent of the factor loaded on free 40 S subunits: < 5%

Substance: eIF5 (from UniProt P38431 1-405) (natural protein)
- percent of the factor loaded on free 40 S subunits: < 5%
